We go through two molecules from patent US20250145697A1 (WASHINGTON UNIVERSITY, published 2025).

The target of test [1] is T1, recombinant alipidated human ApoE4 (human, UniProt P02649 19-317).
T1 construct: mature; full length recombinant protein made in E. coli or bought; biotinylated for SPR; position 112 is counted on the mature protein, not on the precursor entry; also called recApoE; non-lipidated ApoE4
Briefly: direct ELISA on coated recombinant alipidated ApoE (0.5 ug/ml). As for the experimental part:
(§1) ELISA dose response curves were generated for several anti-ApoE antibodies. Briefly, plates were coated overnight with full length recombinant alipidated ApoE2, ApoE3, or ApoE4 (0.5 μg/ml). The following days, plates were washed, blocked and then incubated with an anti-ApoE antibody. A goat, anti-mouse IgG-HRP antibody was used for secondary detection. Recombinant alipidated ApoE was either expressed solubly in E. coli and then purified, or purchased from a commercial supplier.

Test [2] addresses T2, recombinant alipidated human ApoE3 (human, UniProt P02649 19-317).
T2 construct: mature; full length recombinant protein made in E. coli or bought
The test is described as above. As for the experimental part: as §1

Test [3] deals with T3, recombinant alipidated human ApoE2 (human, UniProt P02649 19-317).
T3 construct: mature; full length recombinant protein made in E. coli or bought
The test is described as above. On the procedure: as §1

Test [4] has as its target T4, ApoE4 amino acids 24-125, expressed on yeast (human, UniProt P02649 42-143).
T4 construct: with myc tag, on yeast cells; range counts on the mature protein; also called helix1 + 2 + 3
T4 chain: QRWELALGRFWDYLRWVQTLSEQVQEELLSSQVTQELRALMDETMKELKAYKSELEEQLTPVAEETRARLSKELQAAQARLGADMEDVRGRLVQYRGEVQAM
Briefly: yeast display of myc-tagged ApoE4 fragment, antibody staining. On the procedure:
(§2) Epitope binding of various anti-ApoE antibodies was evaluated multiple ways. Different sequences of human ApoE were expressed on the surface of yeast by yeast display using different plasmids. Different anti-ApoE antibodies were then assessed to determine binding to the different ApoE sequences by immunofluorescence of the yeast cell surface (Table 4). Because none of the anti-ApoE antibodies tested here recognize murine ApoE, the epitope was further narrowed down by comparison of the murine and human ApoE sequences as shown in Tables 4 and 5. DNA constructs containing different regions of ApoE4 with myc tag were transformed into yeast cells. Yeast cells were incubated with HJ15x to detect binding or anti-myc antibody to detect expression.

The target in test [5] is T5, ApoE4 amino acids 1-164, expressed on yeast (human, UniProt P02649 19-182).
T5 construct: with myc tag, on yeast cells; range counts on the mature protein; also called up to helix 4; not shown: myc tag and yeast surface-display partner
T5 chain: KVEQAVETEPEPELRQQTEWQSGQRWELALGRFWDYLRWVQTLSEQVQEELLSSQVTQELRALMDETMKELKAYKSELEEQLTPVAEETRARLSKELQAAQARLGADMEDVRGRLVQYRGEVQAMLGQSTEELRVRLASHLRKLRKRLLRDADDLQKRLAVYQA
The test is described as above. On the procedure:
as §2

The target of test [6] is T6, ApoE4 amino acids 1-132, expressed on yeast (human, UniProt P02649 19-150).
T6 construct: with myc tag, on yeast cells; range counts on the mature protein; also called up to helix 3; not shown: myc tag and yeast surface-display partner
T6 chain: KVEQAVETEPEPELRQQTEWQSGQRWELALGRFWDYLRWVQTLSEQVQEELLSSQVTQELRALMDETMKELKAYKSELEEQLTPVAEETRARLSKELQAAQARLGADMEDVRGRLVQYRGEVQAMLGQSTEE
Described as above. As for the experimental part:
as §2

Test [7] concerns the target T7, ApoE4 amino acids 1-210, expressed on yeast (human, UniProt P02649 19-228).
T7 construct: with myc tag, on yeast cells; range counts on the mature protein; also called N terminal domain; not shown: myc tag and yeast surface-display partner
T7 chain: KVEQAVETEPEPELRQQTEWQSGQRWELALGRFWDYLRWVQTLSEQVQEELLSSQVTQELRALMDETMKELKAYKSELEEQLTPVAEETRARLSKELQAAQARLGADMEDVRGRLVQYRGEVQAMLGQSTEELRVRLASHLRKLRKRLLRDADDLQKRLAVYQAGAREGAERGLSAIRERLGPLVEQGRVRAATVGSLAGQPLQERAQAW
The description is as above. As for the experimental part:
as §2

Test [8] addresses T8, ApoE4 amino acids 24-164, expressed on yeast (human, UniProt P02649 42-182).
T8 construct: with myc tag, on yeast cells; range counts on the mature protein; also called helix1 + 2 + 3 + 4
T8 chain: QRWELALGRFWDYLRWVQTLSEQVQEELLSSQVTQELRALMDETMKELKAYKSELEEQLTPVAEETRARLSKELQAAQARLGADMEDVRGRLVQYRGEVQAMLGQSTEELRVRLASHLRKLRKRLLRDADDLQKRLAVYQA
Described as above. On the procedure: as §2

In test [9] the target is T9, ApoE4 amino acids 54-164, expressed on yeast (human, UniProt P02649 72-182).
T9 construct: with myc tag, on yeast cells; expression in yeast printed as Low; range counts on the mature protein; also called helix2 + 3 + 4
T9 chain: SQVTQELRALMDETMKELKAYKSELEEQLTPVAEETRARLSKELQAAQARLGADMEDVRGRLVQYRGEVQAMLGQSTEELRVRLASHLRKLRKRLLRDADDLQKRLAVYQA
Described as above. As for the experimental part: as §2

Test [10] addresses T1, recombinant alipidated human ApoE4. Nature of the test: SPR (Biacore T200), biotinylated ApoE4 captured on anti-biotin mAb chip, antibody injected, 1:1 fit. As for the experimental part:
The affinity of several anti-ApoE antibodies for ApoE4 was determined by surface plasmon resonance using a BIAcore T200. Anti-biotin monoclonal mouse antibody was immobilized on a Biacore Series S CM5 sensor chip. Biotinylated recombinant alipidated ApoE4 was then captured on to the chip. Serial dilutions of each antibody were injected at a flow rate of 30 μl/min. Each sample was analyzed, for example, with 3-minute association and 10-minute dissociation. After each injection the chip was regenerated using 3 M MgCl₂ or another appropriate buffer. Binding response was corrected by subtracting the response units (RUs) from a flow cell capturing an irrelevant IgG at similar density. A 1:1 Languir model of simultaneous fitting of Kₒₙ and Koff was used for kinetics analysis. Recombinant alipidated ApoE4 was either expressed in soluble form in E. coli and then purified, or purchased from a commercial supplier.
In general terms: SPR reads the build-up and loss of mass on a sensor chip optically.

For the next test, the target named is T10, murine ApoE (mouse, UniProt P08226 19-311).
T10 sequence (looked up): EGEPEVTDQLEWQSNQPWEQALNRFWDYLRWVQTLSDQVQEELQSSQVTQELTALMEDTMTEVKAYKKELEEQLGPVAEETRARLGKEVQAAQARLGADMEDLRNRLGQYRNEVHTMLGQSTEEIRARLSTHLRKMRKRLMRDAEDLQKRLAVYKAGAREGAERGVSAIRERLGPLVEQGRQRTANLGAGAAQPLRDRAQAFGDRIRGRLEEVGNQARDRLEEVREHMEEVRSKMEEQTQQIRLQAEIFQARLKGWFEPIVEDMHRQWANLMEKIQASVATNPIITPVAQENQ
Nature of the test: not described.

What is called EC50 is the midpoint of the concentration-response curve. A word on the Kd: it is a measure of binding affinity in units of concentration. The koff is the first-order rate constant of dissociation. Broadly, the kon is the second-order rate constant of association.

T1 sequence (P02649 19-317 C130R): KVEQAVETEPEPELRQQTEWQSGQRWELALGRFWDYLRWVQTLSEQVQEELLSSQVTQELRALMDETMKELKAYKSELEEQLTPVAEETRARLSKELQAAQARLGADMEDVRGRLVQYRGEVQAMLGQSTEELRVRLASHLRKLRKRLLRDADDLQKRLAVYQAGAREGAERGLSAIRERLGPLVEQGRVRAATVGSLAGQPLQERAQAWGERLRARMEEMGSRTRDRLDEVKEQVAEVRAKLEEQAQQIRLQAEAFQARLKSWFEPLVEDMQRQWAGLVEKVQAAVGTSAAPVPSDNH
T2 sequence (P02649 19-317): as the sequence (P02649 19-317 C130R) above, with R112C counted along it
T3 sequence (P02649 19-317 R176C): as the sequence (P02649 19-317 C130R) above, with R112C, R158C counted along it

B1: HJ1526 (antibody, V domains shown)
VH: QVQLQQPGTALVKPGASVKLSCKSSGYTFTDYWVHWVKQRPGQGLEWIGNINPRNGGINYNENFKGKAILTVDRSFSIAYMQLNSLTSEDSAVYYCARPGATVVHRTPWFAHWGQGTLVTVSA
VL: EIVLTQSPALMAASPGEKVTITCSVSSSISSSNLHWFQQKSETSPKPWIFGTSYLASGVPVRFSGSGSGTSYSLTISSMEAEDAATYYCQQWNSYPLTFGAGTKLELR
notes: murine monoclonal antibody from hybridoma
For the molecule B1, the EC50 in test [1] was 0.04 nM; in test [2], 0.05 nM; in test [3] it was 0.03 nM. The binding result in test [4], in test [5], in test [6], in test [7], in test [8] and in test [9] was “binds” each time. The Kd in [10] amounted to 670 nM. Further, the koff in test [10] stood at 0.00528 s⁻¹. For the same molecule, the on-rate constant (kon) in [10] was 7880 M⁻¹ s⁻¹.

B2: HJ155 (antibody, V domains shown)
VH: RVQLQQSGPGLVKPGASVKISCKASGYTFTDYYINWVRQRPGQGLEWIGWIFPGSGITYYNEKFKGKATLTVDRSSSTAYMLLSSLTSEDSAVYFCARYAYGSPFAYWGQGTLVTVSA
VL: DVLMTQTPLSLPVSLGDQASISCRSSQSIVHSNGNTYLEWYLQKPGQSPKLLIYKVSNRFSGVPDRFSGSGSGTDFTLKISRVEAEDLGVYYCFQGSHVPYTFGGGTKLEIKR
notes: murine monoclonal antibody from hybridoma; also called HJ155B (biotinylated)
On to B2, for which the binding result with murine ApoE is “no binding”; in test [5], “binds”; in test [7], “binds”; in [8], “binds”; in test [9], “binds”. The results for the EC50 in test [1] and in [2] were 1.1 nM and 0.78 nM, respectively.
